For 6 molecules, binding result and Kd results are on record in paper PMC6469509.

One series has as its target T1, NLRC3 NBD recombinant (human, UniProt Q7RTR2 139-460).
T1 sequence: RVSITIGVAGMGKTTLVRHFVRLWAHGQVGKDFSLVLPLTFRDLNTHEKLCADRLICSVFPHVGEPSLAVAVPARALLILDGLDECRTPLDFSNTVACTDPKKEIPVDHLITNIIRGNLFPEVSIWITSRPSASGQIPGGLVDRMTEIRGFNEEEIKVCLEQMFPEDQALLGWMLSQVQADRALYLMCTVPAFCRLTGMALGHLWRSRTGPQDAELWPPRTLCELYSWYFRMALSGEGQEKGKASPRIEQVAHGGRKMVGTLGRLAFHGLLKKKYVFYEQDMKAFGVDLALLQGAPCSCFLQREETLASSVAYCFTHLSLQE
The experiment in a line: pull-down.

The next series deals with cGAS FL recombinant (mouse, UniProt Q8C6L5 1-507). The experiment in a line: EMSA.
Sequence of cGAS FL recombinant (Q8C6L5 whole entry): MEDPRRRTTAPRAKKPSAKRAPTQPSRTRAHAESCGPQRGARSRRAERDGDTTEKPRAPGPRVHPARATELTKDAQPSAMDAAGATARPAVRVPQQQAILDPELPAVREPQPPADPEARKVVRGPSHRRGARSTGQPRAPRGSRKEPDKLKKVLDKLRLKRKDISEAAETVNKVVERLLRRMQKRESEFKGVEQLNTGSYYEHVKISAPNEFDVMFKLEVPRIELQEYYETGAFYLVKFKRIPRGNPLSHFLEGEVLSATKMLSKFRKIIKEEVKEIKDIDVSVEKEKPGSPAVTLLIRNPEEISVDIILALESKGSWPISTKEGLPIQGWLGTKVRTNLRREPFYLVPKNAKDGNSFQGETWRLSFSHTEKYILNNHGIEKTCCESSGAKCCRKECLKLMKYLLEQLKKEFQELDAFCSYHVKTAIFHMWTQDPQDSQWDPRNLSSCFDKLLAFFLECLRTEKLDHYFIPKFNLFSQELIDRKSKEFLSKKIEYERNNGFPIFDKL
Series [1] concerns the target T2, NLRX1 FL recombinant (human, UniProt Q86UT6 1-975). The experiment in a line: EMSA.
Series [2] addresses T3, STING 155-341 (human, UniProt Q86WV6 155-341). The experiment in a line: SPR.
The target in series [3] is T4, NLRC3 FL recombinant (human, UniProt Q7RTR2 1-1065).
T4 sequence: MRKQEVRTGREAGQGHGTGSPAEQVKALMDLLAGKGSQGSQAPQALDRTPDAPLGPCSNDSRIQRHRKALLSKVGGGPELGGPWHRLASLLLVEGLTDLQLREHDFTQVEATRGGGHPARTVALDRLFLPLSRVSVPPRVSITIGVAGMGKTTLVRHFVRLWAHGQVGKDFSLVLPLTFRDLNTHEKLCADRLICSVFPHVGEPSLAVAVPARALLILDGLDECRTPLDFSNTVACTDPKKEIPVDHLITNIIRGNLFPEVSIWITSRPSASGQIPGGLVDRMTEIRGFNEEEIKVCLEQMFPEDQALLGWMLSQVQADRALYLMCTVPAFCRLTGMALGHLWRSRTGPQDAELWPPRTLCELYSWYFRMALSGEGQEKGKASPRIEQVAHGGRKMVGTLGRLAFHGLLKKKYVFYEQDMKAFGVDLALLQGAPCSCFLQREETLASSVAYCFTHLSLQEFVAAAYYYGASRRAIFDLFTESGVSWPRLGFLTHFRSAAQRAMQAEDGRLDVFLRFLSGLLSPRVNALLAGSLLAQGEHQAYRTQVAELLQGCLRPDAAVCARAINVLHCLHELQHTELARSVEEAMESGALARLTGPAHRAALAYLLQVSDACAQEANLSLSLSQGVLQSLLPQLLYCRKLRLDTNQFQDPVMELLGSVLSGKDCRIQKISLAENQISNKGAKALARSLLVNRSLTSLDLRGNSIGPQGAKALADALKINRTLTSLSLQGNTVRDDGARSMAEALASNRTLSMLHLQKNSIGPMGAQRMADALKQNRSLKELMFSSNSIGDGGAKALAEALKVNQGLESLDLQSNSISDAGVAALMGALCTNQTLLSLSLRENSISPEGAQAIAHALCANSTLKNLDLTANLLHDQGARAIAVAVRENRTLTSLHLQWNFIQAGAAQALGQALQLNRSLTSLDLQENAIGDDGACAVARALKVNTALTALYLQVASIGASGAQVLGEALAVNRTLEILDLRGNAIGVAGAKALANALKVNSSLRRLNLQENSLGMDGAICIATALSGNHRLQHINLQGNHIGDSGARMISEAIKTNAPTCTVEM
The experiment in a line: SPR.

Series [4] concerns the target T3, STING 155-341. The experiment in a line: gel filtration.
Series [5] has as its target T4, NLRC3 FL recombinant. The experiment in a line: pull-down.
Series [6] concerns the target T2, NLRX1 FL recombinant. The experiment in a line: pull-down.
Series [7] has as its target T2, NLRX1 FL recombinant. The experiment in a line: SPR.

T2 sequence (Q86UT6 whole entry): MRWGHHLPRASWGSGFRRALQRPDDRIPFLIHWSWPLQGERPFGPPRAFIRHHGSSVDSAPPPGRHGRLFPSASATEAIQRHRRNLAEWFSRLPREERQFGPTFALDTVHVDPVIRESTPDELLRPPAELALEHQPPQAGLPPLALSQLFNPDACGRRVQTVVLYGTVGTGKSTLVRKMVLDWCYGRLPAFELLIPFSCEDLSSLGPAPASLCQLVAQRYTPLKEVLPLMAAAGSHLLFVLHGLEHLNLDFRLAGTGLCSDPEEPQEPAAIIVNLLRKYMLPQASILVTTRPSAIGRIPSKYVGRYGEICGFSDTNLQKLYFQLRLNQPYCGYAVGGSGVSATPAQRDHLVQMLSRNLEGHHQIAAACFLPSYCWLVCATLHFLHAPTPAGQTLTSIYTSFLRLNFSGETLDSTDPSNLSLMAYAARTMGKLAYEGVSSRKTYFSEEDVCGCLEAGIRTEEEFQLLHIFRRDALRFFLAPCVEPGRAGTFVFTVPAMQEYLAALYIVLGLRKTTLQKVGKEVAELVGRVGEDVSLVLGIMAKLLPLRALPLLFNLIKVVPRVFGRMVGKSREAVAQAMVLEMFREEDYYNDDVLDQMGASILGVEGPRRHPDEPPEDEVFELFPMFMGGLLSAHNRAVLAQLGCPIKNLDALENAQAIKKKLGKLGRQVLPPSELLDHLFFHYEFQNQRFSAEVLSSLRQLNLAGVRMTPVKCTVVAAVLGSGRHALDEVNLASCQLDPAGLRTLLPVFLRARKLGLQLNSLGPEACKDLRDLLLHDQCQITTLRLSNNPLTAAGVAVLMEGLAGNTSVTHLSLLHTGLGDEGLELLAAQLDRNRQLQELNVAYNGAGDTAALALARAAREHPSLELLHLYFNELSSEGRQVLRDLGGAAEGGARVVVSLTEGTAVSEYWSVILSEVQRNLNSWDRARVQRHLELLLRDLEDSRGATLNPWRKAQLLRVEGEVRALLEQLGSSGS
T3 sequence (Q86WV6 155-341): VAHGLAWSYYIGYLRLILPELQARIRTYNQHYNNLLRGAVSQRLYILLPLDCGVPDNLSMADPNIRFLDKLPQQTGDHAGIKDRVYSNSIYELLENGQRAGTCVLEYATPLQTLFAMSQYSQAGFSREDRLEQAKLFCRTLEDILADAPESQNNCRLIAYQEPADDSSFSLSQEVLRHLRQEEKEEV

B1: HSV-60 dsDNA (dsDNA)
DNA 1: TAAGACACGATGCGATAAAATCTGTTTGTAAAATTTATTAAGGGTACAAATTGCCCTAGC
DNA 2: GCTAGGGCAATTTGTACCCTTAATAAATTTTACAAACAGATTTTATCGCATCGTGTCTTA
With B1, the binding result with NLRC3 NBD recombinant is given as “no binding”; with cGAS FL recombinant, “binds”; in the series with NLRX1 FL recombinant [1], “no binding”; in the series with STING 155-341 [2] it was “no binding”. Besides, the Kd in the series with NLRC3 FL recombinant [3] amounted to 3 nM.

B2: HSV-60 ssDNA (ssDNA)
DNA: TAAGACACGATGCGATAAAATCTGTTTGTAAAATTTATTAAGGGTACAAATTGCCCTAGC
As to B2, the binding result in the series with NLRC3 FL recombinant [3] was “binds”.

B3: HSV-60 dsDNA unlabelled (dsDNA)
DNA 1: TAAGACACGATGCGATAAAATCTGTTTGTAAAATTTATTAAGGGTACAAATTGCCCTAGC
DNA 2: GCTAGGGCAATTTGTACCCTTAATAAATTTTACAAACAGATTTTATCGCATCGTGTCTTA
Take B3: the binding result with STING 155-341 [4] is given as “no binding”.

B4: HSV-60 DNA-RNA hybrid (DNA:RNA)
DNA: TAAGACACGATGCGATAAAATCTGTTTGTAAAATTTATTAAGGGTACAAATTGCCCTAGC
RNA: GCUAGGGCAAUUUGUACCCUUAAUAAAUUUUACAAACAGAUUUUAUCGCAUCGUGUCUUA
For the molecule B4, the binding result in the series with NLRC3 FL recombinant [3] is listed as “binds”.

B5: HSV-15 dsDNA (dsDNA)
DNA 1: TAAGACACGATGCGA
DNA 2: TCGCATCGTGTCTTA
For the molecule B5, the binding result in the series with NLRC3 FL recombinant [5] is recorded as “binds”; in the series with NLRX1 FL recombinant [6], “no binding”.

B6: HSV-60 dsRNA (dsRNA)
RNA 1: UAAGACACGAUGCGAUAAAAUCUGUUUGUAAAAUUUAUUAAGGGUACAAAUUGCCCUAGC
RNA 2: GCUAGGGCAAUUUGUACCCUUAAUAAAUUUUACAAACAGAUUUUAUCGCAUCGUGUCUUA
For the molecule B6, in the series with NLRX1 FL recombinant [7], the binding result is “binds”.
